T1: MdNAC104 (Malus domestica (apple)?, UniProt D9ZJ88 1-204)
T1 sequence: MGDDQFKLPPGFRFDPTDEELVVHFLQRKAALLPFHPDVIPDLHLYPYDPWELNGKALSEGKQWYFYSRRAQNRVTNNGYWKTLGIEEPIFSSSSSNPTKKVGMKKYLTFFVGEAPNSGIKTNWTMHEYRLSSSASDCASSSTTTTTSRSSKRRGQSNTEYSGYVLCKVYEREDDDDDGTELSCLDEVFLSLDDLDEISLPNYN

B1: MdGAD1 mutant probe 1 (dsDNA)
DNA 1: GCGCTGCACCTAAAAATTCCATTTCTGGAC
DNA 2: GTCCAGAAATGGAATTTTTAGGTGCAGCGC
B2: MdGAD1 mutant probe 3 (dsDNA)
DNA 1: AAAAAATGGGGCAAAATGGGCTTCACTGTC
DNA 2: GACAGTGAAGCCCATTTTGCCCCATTTTTT
B3: MdGAD1 mutant probe 2 (dsDNA)
DNA 1: CAAACCATTTGCAAAATCCTTAAAGCGATT
DNA 2: AATCGCTTTAAGGATTTTGCAAATGGTTTG
B4: MdGAD1 probe 2 (dsDNA)
DNA 1: B3 DNA 1 with A13C, A15C, A16G
DNA 2: B3 DNA 2 with T15C, T16G, T18G
B5: MdGAD1 probe 1 (dsDNA)
DNA 1: B1 DNA 1 with A13C, A15C, A16G
DNA 2: B1 DNA 2 with T15C, T16G, T18G
B6: MdALMT13 probe 3 (dsDNA)
DNA 1: CTTTTGCATTCAGCACGCACTCGCAAAACC
DNA 2: GGTTTTGCGAGTGCGTGCTGAATGCAAAAG
B7: MdALMT13 probe 2 (dsDNA)
DNA 1: CTTATTTCAAAAACACGGGTGAACAGTAAA
DNA 2: TTTACTGTTCACCCGTGTTTTTGAAATAAG
B8: MdGAD1 probe 3 (dsDNA)
DNA 1: B2 DNA 1 with A13C, A15C, A16G
DNA 2: B2 DNA 2 with T15C, T16G, T18G
B9: MdALMT13 probe 4 (dsDNA)
DNA 1: ATGTATATATAAACACGATATCTCCCTTCC
DNA 2: GGAAGGGAGATATCGTGTTTATATATACAT

Here are results for 9 molecules from article PMC11425205, “MdSINA2‐MdNAC104 Module Regulates Apple Alkaline Resistance by Affecting γ‐Aminobutyric Acid Synthesis and Transport”.

Residue numbers refer to the chain shown, from its start.

The first data set concerns the target T1, MdNAC104. The experiment in a line: EMSA; LightShift Chemiluminescent EMSA Kit (Thermo) per manufacturer; buffer, salt, pH and temperature not stated. As to conditions: protein: recombinant; tags: His (pET-32a vector); blunt. Background: A gel shift assay detects complexes by their altered migration in electrophoresis.
For the molecule B1, the binding result is reported as “no binding”. With B2, the binding result is listed as “no binding”. Turning to B3, the binding result is “no binding”.

Staying with this data set, now noted: protein: recombinant; tags: His (pET-32a vector); label: 5' biotin; blunt.
Take B4: the binding result is given as “binds”. Turning to B5, the binding result is reported as “binds”. Regarding B6, the binding result is “binds”. Take B7: the binding result is reported as “binds”. The same measure, in the same setting: with B8 the entry was “binds”. As for B9, the binding result is reported as “binds”.
